Experimental data published in the supplement of paper PMC11865577.

Each sequence was assayed on TO-N3 (biotin conjugate) (assay: pull-down binding Z-score (relative to library population); higher = stronger binding). Settings: RNA library: Library-2.
Procedure, shortened: (§1)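 Streptavidin beads with 100 pmol of biotin-conjugated small molecule were incubated for 60 min at 25 °C with 1 μg of heat-folded Cy5- or Cy3-end-labelled RNA library in phosphate/NaCl/KCl buffer. Bound RNA was eluted in hot SDS after three washes and hybridised to a DNA barcode microarray at 55.5 °C for 20 h. Each binding score is a library-referenced Z-score, computed after beads-only subtraction and a trimmed mean of barcoded replicate probes.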

Sequence	pull-down binding Z-score
AGGGACCCCCGGAGUCUGUCACGGUCUCA [hsa-mir-6784]	0.353
AGGGCAAGUCCAAAGGUAUACAGUUGGUCUGUUCA [hsa-mir-7107]	-0.107
AGGGCAGCUCCCAUGACUGCCUGACCGC [hsa-mir-6880]	0.663
AGGGCAGGGGUGUGGCU [hsa-mir-4751]	2.8
AGGGCCUUCUGAGCCCAGGUCCG [hsa-mir-6716]	0.886
AGGGCUGGGAUUACUAAAGCCCU [hsa-mir-1266]	-0.158
AGGGGACACGGGCAAAGACUUGGGGGUUCCUGGGACCCUCAGACGUGUGUCCUCU [hsa-mir-877]	0.632
AGGGGUCAUAUCUCUUCUCAGGGAAAGCAGGAGCCCUUCAGCAGGGUCAGGGCCCCU [hsa-mir-6891]	0.761
AGGGUGGAGCCCACUGUGGCUCCUGACUCAGCCCU [hsa-mir-6893]	-0.0778
AGGUAGUGAUAUGUGCAUCUACU [hsa-mir-17]	0.31
AGGUAGUGUGAUUACCCAACCUACU [hsa-mir-93]	0.0315
AGGUAGUGUUUAGUUAUCUACU [hsa-mir-20a]	-0.285
AGGUCUCCUGGCAU [hsa-mir-4256]	-0.164
AGGUGCUAGGUCGGCCUCGGC [hsa-mir-5787]	1.01
AGGUGGAAAGGGAGCAGGAGCAUCGUCUUUAAGAGGGUCAGGUACCUUUGCUCUUA [hsa-mir-6083]	0.724
AGGUUCUGCUGGCUGAGAACCU [hsa-mir-3667]	-0.17
AGGUUGGCUGGGCCAGGCCUGACCU [hsa-mir-4722]	0.435
AGGUUUAUGACUGGGCAUUUCUCACCCAAUGCCCAAUAUUGAACUU [hsa-mir-4431]	-0.752
AGGUUUGUGUCCAAUACAGUCCACACCU [hsa-mir-3200]	-0.879

Sequence	pull-down binding Z-score
AGUAGCUGGGAAUACAGGUGUGUGCCACCAUGCCUCUACAAGCUACC [hsa-mir-7851]	-0.0861
AGUAUGGAUUAAAUUUAUAUUUUCCUCGAUACU [hsa-mir-8084]	0.316
AGUAUUUUAAUCAUAGAUUGUAUUUAGUUAGUUUUUAAUACU [hsa-mir-4637]	-0.955
AGUCACUUACACUACAUGUCACU [hsa-mir-892a]	-1.08
AGUCACUUAGAUUACAUGUCACU [hsa-mir-892c]	-0.172
AGUCACUUAGAUUACAUGUGACU [hsa-mir-888]	-0.368
AGUCCAAAGGAAAGGGCU [hsa-mir-8077]	0.822
AGUCCGUGCAUCCGCCCUUCGAUGCUUGGGUU [hsa-mir-3182]	-0.278
AGUCCUGUAAUUAGAUCUCAGGACU [hsa-mir-625]	-0.817
AGUCUCUGAAGAGAGCUGUGGACUGA [hsa-mir-6721]	0.839
AGUCUGUCUCAUACCCAACCAGAUU [hsa-mir-205]	0.14
AGUGAAAUAAAGGUCCAUCUCCUGCCUAUUUAUUACUUUGCU [hsa-mir-1243]	-0.718
AGUGAGCUGAGAUCACGCAACU [hsa-mir-1273f]	0.206
AGUGAGGCGUCGGCUGUGUUUCU [hsa-mir-2110]	0.741
AGUGAGUUGAUUACUUCUCACU [hsa-mir-4676]	-0.26
AGUGCAGUAUGGUGAAGUCAAUCUGUAAU [hsa-mir-590]	-0.148
AGUGCCUCACAGCCGCACAGGACCGAGGAUGCU [hsa-mir-4737]	0.371
AGUGCUAGGACACU [hsa-mir-374c]	-0.616

Each sequence was assayed on TO-N3-2 (biotin conjugate) in the same assay as above. Settings: RNA library: Library-2.
Procedure, shortened: as §1

Sequence	pull-down binding Z-score
AGCCACUGCGGUCGACCAUGACCUGGA [hsa-mir-619]	0.721
AGCCCUGGGCUCCUCAGCAAACCUACUGGAU [hsa-mir-3174]	0.975
AGCCCUGUUGUUGUAAGAUAGUGU [hsa-mir-550a-1]	0.346
AGCCCUGUUGUUGUCAGAUAGUGU [hsa-mir-550a-2]	0.179
AGCCUCCAAACCUGUAGACAGGGUCAUGCAGUACUAGGGGCGAG [hsa-mir-4478]	0.966
AGCCUUCUAUUAUGCCCAGACAGGGCCACCAGAGGGCU [hsa-mir-4448]	-0.254
AGCGCGAAAGU [hsa-mir-1539]	0.55
AGCGCGGCGACCGUAACUCCU [hsa-mir-1237]	1.65
AGCUGGCUGAAGGGCAGAAGGGAACUGUCCUUCAGCCAGAG [hsa-mir-4487]	-0.122
AGCUGGGGCCGGGU [hsa-mir-4281]	1.27
AGCUGGGUGGAGGCAGAGCU [hsa-mir-4291]	1.4
AGCUGUGAAAGUCCUAGCU [hsa-mir-1256]	3.94
AGCUGUGUUUUCUGACUCAGUCAUAAU [hsa-mir-365b]	-0.505
AGCUGUUGAACUGGGAACCUGCU [hsa-mir-31]	0.794
AGCUGUUGGCCAUGGCGACAACACCU [hsa-mir-6742]	0.561
AGCUUCUACGUCAUUCAGCACUUGCU [hsa-mir-5706]	-0.31
AGCUUCUUUAUAAGAAGAGGAAACU [hsa-mir-3923]	-0.5
AGCUUUAUGUAUUCUGAAGUUAUUGAAAAUAAGAGCU [hsa-mir-3140]	-0.911
AGGACACAGGCUGGCACUGAGGUCCC [hsa-mir-6887]	1.41
AGGACGGUGCGCCUUGUUUCCC [hsa-mir-3132]	0.529
AGGAGAAGGUGAGACCAAUGUCCUGGGUGCCACUCCU [hsa-mir-6124]	-0.139
AGGAGGGUCC [hsa-mir-3141]	1.02
AGGAGUUCACU [hsa-mir-1183]	0.0749
AGGCAACAUGGCCGAGAGGCCGGGGCCU [hsa-mir-564]	0.551
AGGCACAUAUGUGAACAUUGUACCA [hsa-mir-5707]	-0.108
AGGCAUGGGUGGCU [hsa-mir-8085]	0.625
AGGCAUUAGGAUCCUUAUUCUUGCCU [hsa-mir-4788]	-0.364

Sequence	pull-down binding Z-score
AGGCCAUACGUGUUGGAGAUU [hsa-mir-4461]	0.79
AGGCCGACGAGCAGCGCAUCCUCUUACCCGGCUA [hsa-mir-138-2]	1.95
AGGCCGUUGCCAAUCAGAGAACGGCUA [hsa-mir-138-1]	1.43
AGGCCUGAGUCUCUCUGCUGCAGAUGGGCUC [hsa-mir-422a]	1.29
AGGCUCUGCAAGAUCAACCGAGCA [hsa-mir-330]	0.739
AGGCUCUGGGUCCGGCUUACUCCCUAGCUUACUGUCCUCAGAACCC [hsa-mir-6071]	0.924
AGGCUGGUCUCAAACUCCU [hsa-mir-5096]	0.128
AGGCUGUCUUCAUUCCCUCUUGACCACCC [hsa-mir-6795]	0.709
AGGCUUGGCACUUGAGGGAAAGCCU [hsa-mir-8059]	0.469
AGGGACCCCCGGAGUCUGUCACGGUCUCA [hsa-mir-6784]	0.955
AGGGCAAGUCCAAAGGUAUACAGUUGGUCUGUUCA [hsa-mir-7107]	0.381
AGGGCAGCUCCCAUGACUGCCUGACCGC [hsa-mir-6880]	1.4
AGGGCAGGGGUGUGGCU [hsa-mir-4751]	1.93
AGGGCCUUCUGAGCCCAGGUCCG [hsa-mir-6716]	1.46
AGGGCUGGGAUUACUAAAGCCCU [hsa-mir-1266]	-0.335
AGGGGACACGGGCAAAGACUUGGGGGUUCCUGGGACCCUCAGACGUGUGUCCUCU [hsa-mir-877]	0.581
AGGGGUCAUAUCUCUUCUCAGGGAAAGCAGGAGCCCUUCAGCAGGGUCAGGGCCCCU [hsa-mir-6891]	0.317
AGGGUGGAGCCCACUGUGGCUCCUGACUCAGCCCU [hsa-mir-6893]	0.419
AGGUAGUGAUAUGUGCAUCUACU [hsa-mir-17]	0.759
AGGUAGUGUGAUUACCCAACCUACU [hsa-mir-93]	0.272
AGGUAGUGUUUAGUUAUCUACU [hsa-mir-20a]	-0.218
AGGUCUCCUGGCAU [hsa-mir-4256]	-0.096
AGGUGCUAGGUCGGCCUCGGC [hsa-mir-5787]	1.47
AGGUGGAAAGGGAGCAGGAGCAUCGUCUUUAAGAGGGUCAGGUACCUUUGCUCUUA [hsa-mir-6083]	1.33
AGGUUCUGCUGGCUGAGAACCU [hsa-mir-3667]	0.149
AGGUUGGCUGGGCCAGGCCUGACCU [hsa-mir-4722]	1.16
AGGUUUAUGACUGGGCAUUUCUCACCCAAUGCCCAAUAUUGAACUU [hsa-mir-4431]	-0.666
